The target of the assay is Full-length human menin (human, UniProt O00255 1-610). Nature of the assay: fluorescence polarisation. On the technique in general: Fluorescence polarisation rises when a labelled molecule tumbles more slowly, as on binding a larger partner.

Where no end group is shown, it is not given here.

Chain of Full-length human menin (O00255 whole entry): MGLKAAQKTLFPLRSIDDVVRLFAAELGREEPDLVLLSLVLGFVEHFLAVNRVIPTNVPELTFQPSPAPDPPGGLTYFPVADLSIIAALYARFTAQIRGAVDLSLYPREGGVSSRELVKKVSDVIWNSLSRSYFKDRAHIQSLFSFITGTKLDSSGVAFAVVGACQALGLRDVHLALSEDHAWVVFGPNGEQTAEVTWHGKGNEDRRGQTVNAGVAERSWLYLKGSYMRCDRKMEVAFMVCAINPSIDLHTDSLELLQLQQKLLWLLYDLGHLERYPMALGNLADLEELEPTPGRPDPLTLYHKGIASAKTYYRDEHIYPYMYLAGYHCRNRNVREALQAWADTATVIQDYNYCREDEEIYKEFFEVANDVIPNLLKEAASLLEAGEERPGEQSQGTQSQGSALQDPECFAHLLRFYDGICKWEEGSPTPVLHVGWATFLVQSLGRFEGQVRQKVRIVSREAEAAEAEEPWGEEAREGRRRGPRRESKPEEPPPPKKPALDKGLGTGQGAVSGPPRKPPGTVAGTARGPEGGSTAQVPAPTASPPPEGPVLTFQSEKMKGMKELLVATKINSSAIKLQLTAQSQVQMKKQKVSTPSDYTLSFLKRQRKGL

As for SCRWRFPARPGT (peptide, UniProt Q03164 4-15, looked up, also: FITC label, position not given here) [FITC-MBM1 peptide of MLL (residues 4-15)], the binding result was “binds”.

Values taken from paper PMC4584387 (Journal of Medicinal Chemistry, 2015).
